Data on seven sequences can be found in the supplement of paper PMC5998384.

In data set [1] the test system is HeLa Kyoto. Briefly: melting temperature (median over replicates), in situ; higher = more thermally stable.
In data set [2] the test system is HeLa Kyoto. Kind of data set: thermal stability score vs G1/S (z-score of summed log2 fold changes over temperatures); higher = more thermally stable than in G1/S.
In data set [3] the test system is HeLa Kyoto. Kind of data set: solubility change mitosis vs G1/S (difference of NP-40 vs SDS log2 ratios) (log2 ratio difference); higher = more soluble in mitosis.
In data set [4] the test system is HeLa Kyoto. Briefly: solubility in G1/S (NP-40 vs SDS abundance) (log2 ratio); higher = more soluble. The note with it: cell cycle stage: G1/S.
Where [5] appears, read: cell cycle stage: early G1 (4.5 h after nocodazole release).
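Wherever melting temperature (median over replicates), in situ is given: HeLa Kyoto cells synchronized by double thymidine or nocodazole block, proteins quantified by TMT10plex mass spectrometry, three independent biological replicates.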
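Wherever solubility change mitosis vs G1/S (difference of NP-40 vs SDS log2 ratios) is given: synchronized HeLa Kyoto cells (double thymidine block for G1/S, nocodazole release for mitosis), protein amounts in NP-40 versus SDS lysates quantified by mass spectrometry, three biological replicates.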
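Wherever solubility in G1/S (NP-40 vs SDS abundance) is given: HeLa Kyoto cells arrested at G1/S by double thymidine block, proteins quantified by TMT10plex mass spectrometry in mild NP-40 versus SDS extracts, three biological replicates.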
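Wherever thermal stability score vs G1/S (z-score of summed log2 fold changes over temperatures) is given: synchronized HeLa Kyoto cells, proteins quantified by TMT10plex mass spectrometry, three biological replicates, mitosis taken 0.5 h after nocodazole release, G1/S directly after double thymidine block.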

On to “MHPPETTTKMASVRFMVTPTKIDDIPGLSDTSPDLSSRSSSRVRFSSRESVPETSRSEPMSEMSGATTSLATVALDPPSDRTSHPQDVIEDLSQNSITGEHSQLLDDGHKKARNAYLNNSNYEEGDEYFDKNLALFEEEMDTRPKVSSLLNRMANYTNLTQGAKEHEEAENITEGKKKPTKTPQMGTFMGVYLPCLQNIFGVILFLRLTWVVGTAGVLQAFAIVLICCCCTMLTAISMSAIATNGVVPAGGSYFMISRALGPEFGGAVGLCFYLGTTFAAAMYILGAIEIFLVYIVPRAAIFHSDDALKESAAMLNNMRVYGTAFLVLMVLVVFIGVRYVNKFASLFLACVIVSILAIYAGAIKSSFAPPHFPVCMLGNRTLSSRHIDVCSKTKEINNMTVPSKLWGFFCNSSQFFNATCDEYFVHNNVTSIQGIPGLASGIITENLWSNYLPKGEIIEKPSAKSSDVLGSLNHEYVLVDITTSFTLLVGIFFPSVTGIMAGSNRSGDLKDAQKSIPIGTILAILTTSFVYLSNVVLFGACIEGVVLRDKFGDAVKGNLVVGTLSWPSPWVIVIGSFFSTCGAGLQSLTGAPRLLQAIAKDNIIPFLRVFGHSKANGEPTWALLLTAAIAELGILIASLDLVAPILSMFFLMCYLFVNLACALQTLLRTPNWRPRFRYYHWALSFMGMSICLALMFISSWYYAIVAMVIAGMIYKYIEYQGAEKEWGDGIRGLSLSAARFALLRLEEGPPHTKNWRPQLLVLLKLDEDLHVKHPRLLTFASQLKAGKGLTIVGSVIVGNFLENYGEALAAEQTIKHLMEAEKVKGFCQLVVAAKLREGISHLIQSCGLGGMKHNTVVMGWPNGWRQSEDARAWKTFIGTVRVTTAAHLALLVAKNISFFPSNVEQFSEGNIDVWWIVHDGGMLMLLPFLLKQHKVWRKCSIRIFTVAQLEDNSIQMKKDLATFLYHLRIEAEVEVVEMHDSDISAYTYERTLMMEQRSQMLRHMRLSKTERDREAQLVKDRNSMLRLTSIGSDEDEETETYQEKVHMTWTKDKYMASRGQKAKSMEGFQDLLNMRPDQSNVRRMHTAVKLNEVIVNKSHEAKLVLLNMPGPPRNPEGDENYMEFLEVLTEGLERVLLVRGGGSEVITIYS [SLC12A6]”, for which the melting temperature in data set [1] (cell cycle stage: G1/S) turned out to be 54.8 °C; in data set [1] (cell cycle stage: mitosis), 54.4 °C. The thermal stability score in data set [2] (setting [5]) is -0.231; in data set [2] (cell cycle stage: mitosis) it was -0.0357. Besides, in data set [3], the “solubility change mitosis (log2)” value was 0.00121. In data set [4], the “solubility in G1/S (log2)” value is -0.0182.

For “MAEGTAEAPLENGGGGDSGAGALERGVAPIKRQYLTTKEQFHQFLEAKGQEKTCRETEVGDPAGNELAEPEAKRIRLEDGQTADGQTEEAAEPGEQLQTQKRARGQNKGRPHVKPTNYDKNRLCPSLIQESAAKCFFGDRCRFLHDVGRYLETKPADLGPRCVLFETFGRCPYGVTCRFAGAHLRPEGQNLVQEELAARGTQPPSIRNGLDKALQQQLRKREVRFERAEQALRRFSQGPTPAAAVPEGTAAEGAPRQENCGAQQVPAGPGTSTPPSSPVRTCGPLTDEDVVRLRPCEKKRLDIRGKLYLAPLTTCGNLPFRRICKRFGADVTCGEMAVCTNLLQGQMSEWALLKRHQCEDIFGVQLEGAFPDTMTKCAELLSRTVEVDFVDINVGCPIDLVYKKGGGCALMNRSTKFQQIVRGMNQVLDVPLTVKIRTGVQERVNLAHRLLPELRDWGVALVTLHGRSREQRYTKLADWQYIEECVQAASPMPLFGNGDILSFEDANRAMQTGVTGIMIARGALLKPWLFTEIKEQRHWDISSSERLDILRDFTNYGLEHWGSDTQGVEKTRRFLLEWLSFLCRYVPVGLLERLPQRINERPPYYLGRDYLETLMASQKAADWIRISEMLLGPVPPSFAFLPKHKANAYK [DUS3L]”, the figures for the melting temperature in data set [1] (cell cycle stage: G1/S) and in data set [1] (cell cycle stage: mitosis) were 49 °C and 48.5 °C, respectively. Further, the figures for the thermal stability score in data set [2] (setting [5]) and in data set [2] (cell cycle stage: mitosis) were 1.52 and 2.59, respectively. The “solubility change mitosis (log2)” value in data set [3] is -0.0331. Also, in data set [4], the “solubility in G1/S (log2)” value was -0.0832.

With “MALLHSGRVLPGIAAAFHPGLAAAASARASSWWTHVEMGPPDPILGVTEAFKRDTNSKKMNLGVGAYRDDNGKPYVLPSVRKAEAQIAAKNLDKEYLPIGGLAEFCKASAELALGENSEVLKSGRFVTVQTISGTGALRIGASFLQRFFKFSRDVFLPKPTWGNHTPIFRDAGMQLQGYRYYDPKTCGFDFTGAVEDISKIPEQSVLLLHACAHNPTGVDPRPEQWKEIATVVKKRNLFAFFDMAYQGFASGDGDKDAWAVRHFIEQGINVCLCQSYAKNMGLYGERVGAFTMVCKDADEAKRVESQLKILIRPMYSNPPLNGARIAAAILNTPDLRKQWLQEVKVMADRIIGMRTQLVSNLKKEGSTHNWQHITDQIGMFCFTGLKPEQVERLIKEFSIYMTKDGRISVAGVTSSNVGYLAHAIHQVTK [GOT2]”, the melting temperature in data set [1] (cell cycle stage: G1/S) came to 59.4 °C; in data set [1] (cell cycle stage: mitosis), 58.8 °C. Further, the results for the thermal stability score in data set [2] (setting [5]) and in data set [2] (cell cycle stage: mitosis) were -1.18 and -2.25, respectively. In addition, the “solubility change mitosis (log2)” value in data set [3] was -0.0966. Further, the “solubility in G1/S (log2)” value in data set [4] is 0.165.

Consider “MADSASESDTDGAGGNSSSSAAMQSSCSSTSGGGGGGGGGGGGGKSGGIVISPFRLEELTNRLASLQQENKVLKIELETYKLKCKALQEENRDLRKASVTIQARAEQEEEFISNTLFKKIQALQKEKETLAVNYEKEEEFLTNELSRKLMQLQHEKAELEQHLEQEQEFQVNKLMKKIKKLENDTISKQLTLEQLRREKIDLENTLEQEQEALVNRLWKRMDKLEAEKRILQEKLDQPVSAPPSPRDISMEIDSPENMMRHIRFLKNEVERLKKQLRAAQLQHSEKMAQYLEEERHMREENLRLQRKLQREMERREALCRQLSESESSLEMDDERYFNEMSAQGLRPRTVSSPIPYTPSPSSSRPISPGLSYASHTVGFTPPTSLTRAGMSYYNSPGLHVQHMGTSHGITRPSPRRSNSPDKFKRPTPPPSPNTQTPVQPPPPPPPPPMQPTVPSAATSQPTPSQHSAHPSSQP [CCDC6]”, for which the melting temperature in data set [1] (cell cycle stage: G1/S) was determined as 53.5 °C; in data set [1] (cell cycle stage: mitosis), 53.6 °C. In addition, the thermal stability score is -2.05 in data set [2] (setting [5]) and 0.137 in data set [2] (cell cycle stage: mitosis). Moreover, the “solubility change mitosis (log2)” value in data set [3] was -0.174. The “solubility in G1/S (log2)” value in data set [4] is 0.826.

For the sequence “MSKLKSSESVRVVVRCRPMNGKEKAASYDKVVDVDVKLGQVSVKNPKGTAHEMPKTFTFDAVYDWNAKQFELYDETFRPLVDSVLQGFNGTIFAYGQTGTGKTYTMEGIRGDPEKRGVIPNSFDHIFTHISRSQNQQYLVRASYLEIYQEEIRDLLSKDQTKRLELKERPDTGVYVKDLSSFVTKSVKEIEHVMNVGNQNRSVGATNMNEHSSRSHAIFVITIECSEVGLDGENHIRVGKLNLVDLAGSERQAKTGAQGERLKEATKINLSLSALGNVISALVDGKSTHIPYRDSKLTRLLQDSLGGNAKTVMVANVGPASYNVEETLTTLRYANRAKNIKNKPRVNEDPKDALLREFQEEIARLKAQLEKRSIGRRKRREKRREGGGSGGGGEEEEEEGEEGEEEGDDKDDYWREQQEKLEIEKRAIVEDHSLVAEEKMRLLKEKEKKMEDLRREKDAAEMLGAKIKAMESKLLVGGKNIVDHTNEQQKILEQKRQEIAEQKRREREIQQQMESRDEETLELKETYSSLQQEVDIKTKKLKKLFSKLQAVKAEIHDLQEEHIKERQELEQTQNELTRELKLKHLIIENFIPLEEKSKIMNRAFFDEEEDHWKLHPITRLENQQMMKRPVSAVGYKRPLSQHARMSMMIRPEARYRAENIVLLELDMPSRTTRDYEGPAIAPKVQAALDAALQDEDEIQVDASSFESTANKKSKARPKSGRKSGSSSSSSGTPASQLYPQSRGLVPK [KIF3B]”, the melting temperature in data set [1] (cell cycle stage: G1/S) and in data set [1] (cell cycle stage: mitosis) was 50.3 °C each time. The thermal stability score in data set [2] (setting [5]) is 0.792; in data set [2] (cell cycle stage: mitosis), 0.328. The “solubility change mitosis (log2)” value in data set [3] is -0.0759. Further, in data set [4], the “solubility in G1/S (log2)” value was 0.0133.

“MSWGTELWDQFDSLDKHTQWGIDFLERYAKFVKERIEIEQNYAKQLRNLVKKYCPKRSSKDEEPRFTSCVAFFNILNELNDYAGQREVVAEEMAHRVYGELMRYAHDLKTERKMHLQEGRKAQQYLDMCWKQMDNSKKKFERECREAEKAQQSYERLDNDTNATKADVEKAKQQLNLRTHMADENKNEYAAQLQNFNGEQHKHFYVVIPQIYKQLQEMDERRTIKLSECYRGFADSERKVIPIISKCLEGMILAAKSVDERRDSQMVVDSFKSGFEPPGDFPFEDYSQHIYRTISDGTISASKQESGKMDAKTTVGKAKGKLWLFGKKPKPQSPPLTPTSLFTSSTPNGSQFLTFSIEPVHYCMNEIKTGKPRIPSFRSLKRGWSVKMGPALEDFSHLPPEQRRKKLQQRIDELNRELQKESDQKDALNKMKDVYEKNPQMGDPGSLQPKLAETMNNIDRLRMEIHKNEAWLSEVEGKTGGRGDRRHSSDINHLVTQGRESPEGSYTDDANQEVRGPPQQHGHHNEFDDEFEDDDPLPAIGHCKAIYPFDGHNEGTLAMKEGEVLYIIEEDKGDGWTRARRQNGEEGYVPTSYIDVTLEKNSKGS [FNBP1L]”: the melting temperature in data set [1] (cell cycle stage: G1/S) and in data set [1] (cell cycle stage: mitosis) was 51.1 °C each time. Further, the thermal stability score in data set [2] (setting [5]) is -0.0981; in data set [2] (cell cycle stage: mitosis), -0.548. The “solubility change mitosis (log2)” value in data set [3] is -0.034. Further, the “solubility in G1/S (log2)” value in data set [4] amounted to 0.339.

As for “MEEDTDYRIRFSSLCFFNDHVGFHGTIKSSPSDFIVIEIDEQGQLVNKTIDEPIFKISEIQLEPNNFPKKPKLDLQNLSLEDGRNQEVHTLIKYTDGDQNHQSGSEKEDTIVDGTSKCEEKADVLSSFLDEKTHELLNNFACDVREKWLSKTELIGLPPEFSIGRILDKNQRASLHSAIRQKFPFLVTVGKNSEIVVKPNLEYKELCHLVSEEEAFDFFKYLDAKKENSKFTFKPDTNKDHRKAVHHFVNKKFGNLVETKSFSKMNCSAGNPNVVVTVRFREKAHKRGKRPLSECQEGKVIYTAFTLRKENLEMFEAIGFLAIKLGVIPSDFSYAGLKDKKAITYQAMVVRKVTPERLKNIEKEIEKKRMNVFNIRSVDDSLRLGQLKGNHFDIVIRNLKKQINDSANLRERIMEAIENVKKKGFVNYYGPQRFGKGRKVHTDQIGLALLKNEMMKAIKLFLTPEDLDDPVNRAKKYFLQTEDAKGTLSLMPEFKVRERALLEALHRFGMTEEGCIQAWFSLPHSMRIFYVHAYTSKIWNEAVSYRLETYGARVVQGDLVCLDEDIDDENFPNSKIHLVTEEEGSANMYAIHQVVLPVLGYNIQYPKNKVGQWYHDILSRDGLQTCRFKVPTLKLNIPGCYRQILKHPCNLSYQLMEDHDIDVKTKGSHIDETALSLLISFDLDASCYATVCLKEIMKHDV [PUS7L]”, the melting temperature turned out to be 51 °C in data set [1] (cell cycle stage: G1/S) and 51.9 °C in data set [1] (cell cycle stage: mitosis). The thermal stability score was determined as 0.23 in data set [2] (setting [5]) and 0.98 in data set [2] (cell cycle stage: mitosis). In data set [3], the “solubility change mitosis (log2)” value is -0.137. For the same sequence, the “solubility in G1/S (log2)” value in data set [4] was -0.0836.
